Test results published in article PMC10076392, “Structure of the heterotrimeric membrane protein complex FtsB-FtsL-FtsQ of the bacterial divisome” (Nature Communications, 2023).

Molecular target: T1, FtsW-FtsI complex, His-tagged (E. coli strain K12, UniProt P0ABG4 1-414; P0AD68 1-577)
T1 construct: FtsW, transglycosylase, E. coli strain K12 (ATCC10798D-5), amplified from the genome with primers W-F and W-R; also called FtsWI; His-tagged FtsWI; source: E. coli C43, co-expressed from pETduet-FtsWI, purified (Ni-NTA, Superdex-200) in DDM
T1 sequence (looked up) 1: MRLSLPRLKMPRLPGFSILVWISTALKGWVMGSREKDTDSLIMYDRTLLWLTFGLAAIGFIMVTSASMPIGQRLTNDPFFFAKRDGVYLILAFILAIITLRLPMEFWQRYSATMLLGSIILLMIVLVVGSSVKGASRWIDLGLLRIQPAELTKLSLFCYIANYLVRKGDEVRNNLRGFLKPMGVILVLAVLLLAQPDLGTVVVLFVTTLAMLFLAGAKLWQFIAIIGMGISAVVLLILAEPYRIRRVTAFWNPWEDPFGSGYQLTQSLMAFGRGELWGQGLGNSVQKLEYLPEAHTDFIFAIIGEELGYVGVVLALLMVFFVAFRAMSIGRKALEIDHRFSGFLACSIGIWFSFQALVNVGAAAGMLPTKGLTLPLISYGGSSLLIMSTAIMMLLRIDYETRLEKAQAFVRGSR
T1 sequence (looked up) 2: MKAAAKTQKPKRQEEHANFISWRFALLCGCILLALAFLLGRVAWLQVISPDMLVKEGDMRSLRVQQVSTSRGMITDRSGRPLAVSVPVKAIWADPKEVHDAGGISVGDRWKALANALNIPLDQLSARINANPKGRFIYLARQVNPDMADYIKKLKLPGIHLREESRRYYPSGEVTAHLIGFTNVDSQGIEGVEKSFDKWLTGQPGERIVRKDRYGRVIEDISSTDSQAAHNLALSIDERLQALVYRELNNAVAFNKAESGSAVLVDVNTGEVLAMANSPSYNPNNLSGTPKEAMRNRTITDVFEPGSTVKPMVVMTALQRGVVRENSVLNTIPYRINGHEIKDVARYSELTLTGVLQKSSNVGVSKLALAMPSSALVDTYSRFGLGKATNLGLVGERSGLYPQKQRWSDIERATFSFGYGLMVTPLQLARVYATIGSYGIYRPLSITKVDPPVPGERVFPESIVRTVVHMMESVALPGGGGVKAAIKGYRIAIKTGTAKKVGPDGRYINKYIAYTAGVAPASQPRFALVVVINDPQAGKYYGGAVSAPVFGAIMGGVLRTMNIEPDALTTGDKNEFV
Experiment: BLI; His-tagged protein loaded at 50 μg/ml on HIS1K (Anti-Penta-HIS) biosensors; analyte in threefold dilutions 0.016-4 µM; 200 mM NaCl, 20 mM HEPES pH7.5, 0.1% DDM; 240 sec association and dissociation; Octet HTX
Details: both partners purified

B1: PBP1b (aa58-804) (enzyme, E. coli strain K12, UniProt P02919 58-804, looked up)
chain: KPRGKRGWLWLLLKLAIVFAVLIAIYGVYLDQKIRSRIDGKVWQLPAAVYGRMVNLEPDMTISKNEMVKLLEATQYRQVSKMTRPGEFTVQANSIEMIRRPFDFPDSKEGQVRARLTFDGDHLATIVNMENNRQFGFFRLDPRLITMISSPNGEQRLFVPRSGFPDLLVDTLLATEDRHFYEHDGISLYSIGRAVLANLTAGRTVQGASTLTQQLVKNLFLSSERSYWRKANEAYMALIMDARYSKDRILELYMNEVYLGQSGDNEIRGFPLASLYYFGRPVEELSLDQQALLVGMVKGASIYNPWRNPKLALERRNLVLRLLQQQQIIDQELYDMLSARPLGVQPRGGVISPQPAFMQLVRQELQAKLGDKVKDLSGVKIFTTFDSVAQDAAEKAAVEGIPALKKQRKLSDLETAIVVVDRFSGEVRAMVGGSEPQFAGYNRAMQARRSIGSLAKPATYLTALSQPKIYRLNTWIADAPIALRQPNGQVWSPQNDDRRYSESGRVMLVDALTRSMNVPTVNLGMALGLPAVTETWIKLGVPKDQLHPVPAMLLGALNLTPIEVAQAFQTIASGGNRAPLSALRSVIAEDGKVLYQSFPQAERAVPAQAAYLTLWTMQQVVQRGTGRQLGAKYPNLHLAGKTGTTNNNVDTWFAGIDGSTVTITWVGRDNNQPTKLYGASGAMSIYQRYLANQTPTPLNLVPPEDIADMGVDYDGNFVCSGGMRILPVWTSDPQSLCQQSEMQQQPS
notes: PBP1b, bi-functional peptidoglycan synthase, E. coli strain K12 (ATCC10798D-5), residues 58-804; Analyte in BLI; source: E. coli C43, from pET15b-PBP1b, purified (Ni-NTA, Superdex-200) in DDM
**Q.** Does B1 bind?
**A.** binds
